The target in assay [1] is T1, human Kallikrein-related peptidase 7 (hKLK7) (human), P49862. In words: enzyme inhibition; 2,6-bis(bromomethyl)pyridine linker. To be noted: modification not given.
Target sequence in this assay (P49862 30-253): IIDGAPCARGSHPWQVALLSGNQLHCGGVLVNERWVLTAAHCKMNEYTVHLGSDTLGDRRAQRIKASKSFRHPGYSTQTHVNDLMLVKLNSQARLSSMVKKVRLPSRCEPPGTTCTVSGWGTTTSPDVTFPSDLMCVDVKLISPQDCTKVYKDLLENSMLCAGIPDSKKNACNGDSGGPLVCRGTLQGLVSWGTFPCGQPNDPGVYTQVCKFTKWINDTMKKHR
For assay [2], the target named is T1, human Kallikrein-related peptidase 7 …. The assay can be described thus: enzyme inhibition; pyridine linker. To be noted: modification not given.
Target sequence in this assay (P49862 30-253): as above
Assay [3] has as its target human Kallikrein-related peptidase 5 (hKLK5) (human), Q9Y337. In words: enzyme inhibition; 2,6-bis(bromomethyl)pyridine linker. To be noted: modification not given.
The target of assay [4] is T1, human Kallikrein-related peptidase 7 …. The assay can be described thus: enzyme inhibition; ketone linker. The note with it: modification not given.
Target sequence in this assay (P49862 30-253): as above
The target is the same in assay [5]. The assay can be described thus: enzyme inhibition; 1,3-dibromoacetone linker. To be noted: modification not given.
Target sequence in this assay (P49862 30-253): as above
Assay [6] addresses human serum albumin (HSA) (human), P02768. In words: fluorescence polarization. (In general: In fluorescence polarisation assays a small probe gives low polarisation when free and higher when bound to something large.)
The target in assay [7] is T1, human Kallikrein-related peptidase 7 …. The assay can be described thus: substrate-based activity assay.
Target sequence in this assay (P49862 30-253 limits assumed): as the sequence (P49862 30-253) above

Positions of bridges follow the written chain, without caps; N, C: chain ends. Non-standard residues stand in square brackets, D forms with d. Chains are numbered I, II in the order given. No end group written: not given here. *: point of attachment. Palmitoyl = CCCCCCCCCCCCCCCC(=O)*; hArg = N=C(N)NCCCC[C@H](N)C(=O)O; Nle = CCCC[C@H](N)C(=O)O

human Kallikrein-related peptidase 5 (hKLK5) (human), Q9Y337, sequence (Q9Y337 67-293): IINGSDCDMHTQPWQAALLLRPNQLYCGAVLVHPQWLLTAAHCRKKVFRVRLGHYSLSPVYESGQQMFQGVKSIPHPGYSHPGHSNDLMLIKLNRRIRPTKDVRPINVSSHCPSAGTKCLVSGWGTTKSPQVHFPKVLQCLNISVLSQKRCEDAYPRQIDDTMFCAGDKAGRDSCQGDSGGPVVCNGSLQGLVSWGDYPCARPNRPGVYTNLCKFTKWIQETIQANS

For the molecule RCDSSQCMQGQCLYRSCP [007], in assay [1], the inhibition constant (Ki) amounted to 94 nM. In other words, the double-digit nanomolar range. RCLYLSCS [082] gave an inhibition constant (Ki) in assay [2] of 8.8 nM. HCRKGLDRCPQCLYRTCS [008] gave a Ki in assay [1] of 66 nM. As for PCLYLACS [087], the inhibition constant (Ki) in assay [2] stood at 17.5 nM.

Take PCLYLSCS [080]: in assay [2], the inhibition constant (Ki) is 29.4 nM. With ACTREYNPQCANPQCLCH [003], the Ki in assay [3] stood at 6 nM. This counts as single-digit nanomolar.

In assay [2], PCLYLTCS [088] registered an inhibition constant Ki of 52 nM. This counts as double-digit nanomolar. On to PCLYLAQCS [112], for which the Ki in assay [4] is 36 nM. This counts as double-digit nanomolar. FCLWPWCQPPEACPSQCE [012] returned an inhibition constant Ki in assay [5] of more than 1000 nM. The molecule PCLYLAC [109] registered a Ki in assay [2] of 19 nM.

PCLYLSRCS [095] returned a Ki in assay [4] of 90 nM.

B1: KLK7 inhibitor 278-tag (final KLK7 inhibitor) (peptide)
peptide 1: PCLY[Nle]A[hArg]CGKG
peptide 2: EYEK(Palmitoyl)EYE
modifications: bridge I:2-I:8; not fully specified (some residues, N-terminus, bridges); also: chain 2 (albumin tag) attached via PEG2 to Lys10 side chain of chain 1 (branched)
For the molecule B1, in assay [6], the Kd is 164 nM. The molecule also had a Ki in assay [7] of 7.4 nM. In assay [2], PCLYLSCP [089] returned an inhibition constant (Ki) of 50 nM.

In the case of PCLYMARCS [111], the inhibition constant (Ki) in assay [4] was determined as 10 nM. In turn, PCLYRSCS [086] registered a Ki in assay [2] of 53 nM. For the molecule QCLYIACPSAAKCDNGCQ [009], the Ki in assay [1] turned out to be 32 nM. In other words, the double-digit nanomolar range. The molecule QCLYLSCS [081] had an inhibition constant (Ki) in assay [2] of 12 nM.

For orientation: Ki means the dissociation constant of the complex between target and ligand, obtained from inhibition or displacement. Higher therefore signals a looser hold on the target. Usually Kd stands for the free concentration of one partner at which half of the binding sites on the other are occupied at equilibrium, for simple one-to-one binding. High values mean lower affinity, low ones higher affinity.

(Values after patent US20220267379A1, “NOVEL INHIBITORS OF […] AND USES THEREOF” (Ecole Polytechnique Federale de Lausanne (EPFL), priority 2019, published 2022).)
